The record followed here is patent US20210347873A1 (SHANGHAI PHARMAEXPLORER, published 2021).

B1: 2-1G11 (antibody, V domains shown)
VH: EVQLVESRGGVVQPGRSLRLSCAASGFTFSSYGMHWVRQAPGKGLEWVAVISYDGSNKYYADSVKGRFTISRDNSKNTLYLQMNSLRAEDAAVYYCARDRVDILTGYSIYGMDVWGQGTTVTVSS
VL: EIVMTQSPATLSLSPGERATLSCRASQSVSSYLAWYQQKPGQAPRLLIYDASKRATGIPARFSGSGSGTDFTLTISSLEPEDFAVYYCQQRSNWPLTFGGGTKVEIK
notes: From a human naive scFv phage library; also called human BLyS antibody 2-1G11
B2: L9G7 (antibody, V domains shown)
VH: QIQLVQSGAEVKKPGASVKVSCKASGYTFTSYGISWVRQAPGQGLEWMGWISAYNGNTNYAQKLQGRVTMTTDTSTSTAYMELRSLRSDDTAVYYCARTYYDILTGYYYYGMDVWGQGTTVTVSS
VL: B1 VL with M4L, A9G, A25T, S30D, S31T, K53N
notes: From a human naive scFv phage library; also called human BLyS antibody L9G7
B3: L1D12 (antibody, V domains shown)
VH: QVQLVQSGGGLVQPGGSLRLSCAASGFTVSSNYMSWVRQAPGKGLEWVSVIYSGGSTYYADSVKGRFTISRDNSKNTLYLQMNSLRAEDTAVYYCARGFHDILTGYGMDVWGQGTTVTVSS
VL: SSELTQDPAVSVALGQTVRITCQGDSLRNYYAGWYQQKPGQAPVLVIYGKNNRPSGIPDRFSGSSSGNTASLTITGTQAEDEADYYCSSRDNSGTHLVEFGGGTKLTVL
notes: From a human naive scFv phage library; also called human BLyS antibody L1D12; LID12
B4: L9G7 (antibody, human IgG1, V domains shown)
VH: B2 VH
VL: B1 VL with M4L, A9G, A25T, S30D, S31T, K53N
B5: 97A3C2H4 (antibody, V domains shown)
VH: EVKLVESGGGLVQPGGSLKLSCAASGFTFSTYTMSWVRQTPEKRLEWVAYISYGGGSTSYPDTVKGRFTISRDNAKNTLYLQMSSLKSEDTAIYYCTRHVTVVENSMDYWGQGTSVTVSS
VL: DILLTQSPDILSVSPGERVSFSCRASQSIGTSIHWYQQRTNGSPRLLIKYVSESFSGTPSRFSGSGSGTAFTLTINSVESEDIADYYCQQTHSWPWTFGGGTKLEIK
notes: Mouse hybridoma antibody purified on Protein G
B6: L1D12 (antibody, human IgG1, V domains shown)
VH: B3 VH
VL: B3 VL
notes: also called LID12
B7: 111D10D6G3 (antibody, V domains shown)
VH: QVQLQQPGAELVKPGASVKMSCKASGYTFTRHWITWVKQRPGQGLEWIGDIFPGSGSINYNEKFKSEATLTVEKSSSTAYMQLSSLTSEDSAVYYCARGDVDVWGTGTTVTVSS
VL: DIQMTQSPSSLSASLGERVSLTCRASQEIRGYLSWLQQKPNGTIKRLIYAASTLDSGVPKRFSATRSGSDFSLTISSLESEDFADYYCLQYASYPFTFGSGTKLEIK
notes: as for B5
B8: 97A3C2H4 (antibody, V domains shown)
VH: B5 VH
VL: B5 VL
notes: Mouse hybridoma monoclonal antibody purified on Protein G
B9: 111D10D6G3 (antibody, V domains shown)
VH: B7 VH
VL: B7 VL
notes: as for B8
B10: 8E7D9C7F5 (antibody, V domains shown)
VH: QVQLQQSGVELARPGASVKLSCKASGYTFTSYGISWVKQRTGQALEWIGEIYPRSGNTYYNEKFKGKATLTADKSSSTAYMELRSLTSEDSAVYFCARSGPITTLVATDYGMDYWGQGTSVTVSS
VL: DIVLTQSPASLAVSLGQRATISCRASKSVSTSSYSYMHWYQQKPGQPPKLLIKFASNLESGVPARFSGSGSGTDFTLNIHPVEEEDAATYYCQHSREFPYTFGGGTKLEIK
notes: as for B8

Residue numbers refer to the chain shown, from its start.

T2 sequence (Q9Y275 134-285): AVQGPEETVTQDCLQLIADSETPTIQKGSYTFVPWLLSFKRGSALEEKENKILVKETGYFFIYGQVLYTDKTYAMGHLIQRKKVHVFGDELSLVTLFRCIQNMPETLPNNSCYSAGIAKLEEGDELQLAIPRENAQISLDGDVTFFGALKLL

The target in the first experiment is T1, biotinylated hBLyS-ECD (human, UniProt Q9Y275 134-285, biotinylated with Biotin-X-X-NHS (molar ratio 7:1); sites not stated).
T1 construct: also called biotinylated immunogen; BLyS protein
T1 sequence (Q9Y275 134-285): as above
Description: competitive ELISA on biotinylated hBLyS-ECD; competitor 2-1G11. Here is the method:
The purified human BLyS antibody and hybridoma antibody were subjected to competitive enzyme-linked immunosorbent assay and the epitopes binding by different antibodies were analyzed.
Purified BLyS antibody was first diluted to a final concentration of 1.0 μg/mL with PBS, then aliquoted into a 96-well ELISA plate at 50 μL per well, and the plate was subsequently sealed with plastic film and incubated at 4° C. overnight. On the next day the plate was rinsed four times with the plate washing buffer [PBS buffer containing 0.05% (v/v) Tween20] and mixed with blocking solution [PBS buffer containing 0.05% (v/v) Tween20 and 1% (w/w) BSA], and then blocked at 37° C. for 1 hour. The blocking solution was removed, and the competitive antibody and IgG control were diluted to a final concentration of 40 μg/mL with PBS and then aliquoted into the 96-well ELISA plate at 50 μL per well. The biotinylated hBLyS-ECD was then diluted with PBS to a final concentration of 2 ng/mL and pipetted into the 96-well ELISA plate at 50 μL per well. The final concentration of competitive antibody and hBLyS-ECD was 20 μg/mL and 1 ng/mL, respectively. After incubation at 37° C. for 1 hour, the plate was rinsed four times with the plate washing buffer [PBS buffer containing 0.05% (v/v) Tween20]. 100 μL per well of HRP-labeled (horseradish peroxidase) streptavidin (purchased from Sigma) was added into the plate and the plate was incubated at 37° C. for 1 hour. The plate was then washed four times with the plate washing buffer [PBS buffer containing 0.05% (v/v) Tween20]. 100 μL of TMB substrate was aliquoted into each well and after incubation at room temperature for 5 minutes, 100 μL of stop solution (1.0 N HCl) was aliquoted into each well. A₄₅₀ₙₘ values were read by an ELISA plate reader (SpectraMax M5e, purchased from Molecular Device) and the results were shown in Tables 18A-18B. […] The data shown in the table is the inhibitory rate (%) of the binding level of the original antibody to hBLyS-ECD after addition of the competitive antibody.
For the molecule B1, the “inhibitory rate (%)” value is 82%.

For the molecule B2, the “inhibitory rate (%)” value was determined as 96%.

With B3, the “inhibitory rate (%)” value is 94%.

The next experiment addresses T2, biotinylated hBLyS-ECD (human, UniProt Q9Y275 134-285, biotinylated with Biotin-X-X-NHS (molar ratio 7:1), sites not stated).
T2 construct: The hBLyS-ECD of Embodiment 1 after biotinylation (Embodiment 2); also called biotinylated immunogen; BLyS protein; not shown: His tag of the pCPC vector
The experiment in a line: ELISA, biotinylated hBLyS-ECD captured on streptavidin; antibody 0 nM (blank). Here is the method:
(§1) Streptavidin was first diluted to a final concentration of 1.0 μg/mL with PBS, and then 50 μL of diluted streptavidin per well was aliquoted into 96-well ELISA plate, which was subsequently sealed with plastic film and incubated at 4° C. overnight. On the next day the plate was washed four times with the plate washing buffer [PBS buffer containing 0.05% (v/v) Tween20] and added with the blocking solution [PBS buffer containing 0.05% (v/v) Tween20 and 1% (w/w) BSA] and blocked for 2 hours at 37° C. The blocking solution was removed, the biotinylated hBLyS-ECD prepared in Embodiment 2 was diluted with PBS to a final concentration of 50 ng/mL and then aliquoted into the 96-well ELISA plate at 50 μL per well and incubated for 1 hour at 37° C. After rinsing the plate four times with the plate washing buffer [PBS buffer containing 0.05% (v/v) Tween20], 100 μl of the purified lead antibody harvested in Embodiment 1 and 2 was pipetted into each well. After incubation for 1 hour at 37° C., the plate was rinsed four times with the plate washing buffer [PBS buffer containing 0.05% (v/v) Tween20]. HRP-labeled (horseradish peroxidase) secondary antibody (purchased from Sigma) was added in and incubated at 37° C. for 1 hour. The plate was then rinsed four times with the plate washing buffer [PBS buffer containing 0.05% (v/v) Tween20]. 100 μL of TMB substrate was aliquoted into each well and after incubation for 5 minutes at room temperature, 100 μL of stop solution (1.0 N HCl) was aliquoted into each well. A₄₅₀ₙₘ values were read via an ELISA plate reader (SpectraMax M5e purchased from Molecular Devices) and the results were shown in FIGS. 5A-5B and Table 10.
For orientation: In an ELISA, binding on a coated surface is turned into a signal by an enzyme label.
As for B4, the OD450 nm stood at 0.071.

B5: the OD450 nm was 0.0603.

On to B6, for which the OD450 nm was 0.11.

Consider B7, for which the OD450 nm was found to be 0.0617.

For the next experiment, the target named is T1, biotinylated hBLyS-ECD. Description: blocking ELISA: biotinylated hBLyS-ECD on coated BAFF R, antibody 0.16 nM. On the procedure: (§2) BAFF R (purchased from R & D Systems) was aliquoted into 96-well ELISA plate at 50 ng per well, and the plate was sealed with plastic film and incubated overnight at 4° C. On the next day the plate was washed four times with the plate washing buffer [PBS buffer containing 0.05% (v/v) Tween20] and added with blocking solution [PBS buffer containing 0.05% (v/v) Tween20 and 1% (w/w) BSA], then blocked for 1 hour at room temperature. The blocking solution was removed and 50 μL per well of the lead antibodies prepared in Embodiment 1 and 2 were added followed by the addition of 50 μL per well of the biotinylated hBLyS-ECD prepared in Embodiment 2. After incubation for 1 hour at 37° C., the plate was washed four times with the plate washing buffer [PBS buffer containing 0.05% (v/v) Tween20]. 100 μL per well of HRP-labeled (horseradish peroxidase) avidin (purchased from Sigma) was added and incubated at 37° C. for 1 hour. The plate was then washed four times with the plate washing buffer [PBS buffer containing 0.05% (v/v) Tween20]. 100 μL of TMB substrate was aliquoted into each well and after incubation for 5 minutes at room temperature, then 100 μL of stop solution (1.0 N HCl) was aliquoted into each well. A₄₅₀ₙₘ values were read with an ELISA plate reader (SpectraMax 384plus, Molecular Device) and the results were shown in FIGS. 9A-9B and Table 15. It was shown in Table 15 that the binding of BLyS protein to its receptor BAFF R could be blocked by the BLyS antibody.
Consider B8, for which the OD450 nm turned out to be 0.816 OD450 nm.

On to B9, for which the OD450 nm was found to be 0.911 OD450 nm.

For the molecule B10, the OD450 nm stood at 0.61 OD450 nm.

In another experiment the target is T1, biotinylated hBLyS-ECD. The experiment in a line: blocking ELISA: biotinylated hBLyS-ECD on coated BAFF R, antibody 4 nM. Here is the method:
as §2
As to B8, the OD450 nm came out at 0.208 OD450 nm.

Consider B9, for which the OD450 nm is 0.67 OD450 nm.

On to B10, for which the OD450 nm worked out at 0.173 OD450 nm.

The next experiment deals with T2, biotinylated hBLyS-ECD. Description: ELISA, biotinylated hBLyS-ECD captured on streptavidin; antibody 0.0213 nM. On the procedure: as §1
Regarding B4, the OD450 nm amounted to 0.181.

B5: the OD450 nm amounted to 0.283.

Regarding B6, the OD450 nm was 0.262.

For B7, the OD450 nm was determined as 0.194.

The next experiment addresses T2, biotinylated hBLyS-ECD. Description: ELISA, biotinylated hBLyS-ECD captured on streptavidin; antibody 0.107 nM. Here is the method: as §1
As to B4, the OD450 nm was 0.528.

As for B5, the OD450 nm was determined as 0.899.

As to B6, the OD450 nm stood at 0.678.

As to B7, the OD450 nm is 0.613.
